Results published in article PMC3285688, “Active Site Mutations Change the Cleavage Specificity of Neprilysin” (PLoS ONE, 2012).
Changes are numbered by the printed parent chain. Names may count otherwise.

B1: NEP^F563M: neprilysin active site mutant, Phe563 to methionine (protein, UniProt P08473 2-750, looked up, variant F563M)
Neprilysin: GKSESQMDITDINTPKPKKKQRWTPLEISLSVLVLLLTIIAVTMIALYATYDDGICKSSDCIKSAARLIQNMDATTEPCTDFFKYACGGWLKRNVIPETSSRYGNFDILRDELEVVLKDVLQEPKTEDIVAVQKAKALYRSCINESAIDSRGGEPLLKLLPDIYGWPVATENWEQKYGASWTAEKAIAQLNSKYGKKVLINLFVGTDDKNSVNHVIHIDQPRLGLPSRDYYECTGIYKEACTAYVDFMISVARLIRQEERLPIDENQLALEMNKVMELEKEIANATAKPEDRNDPMLLYNKMTLAQIQNNFSLEINGKPFSWLNFTNEIMSTVNISITNEEDVVVYAPEYLTKLKPILTKYSARDLQNLMSWRFIMDLVSSLSRTYKESRNAFRKALYGTTSETATWRRCANYVNGNMENAVGRLYVEAAFAGESKHVVEDLIAQIREVFIQTLDDLTWMDAETKKRAEEKALAIKERIGYPDDIVSNDNKLNNEYLELNYKEDEYFENIIQNLKFSQSKQLKKLREKVDKDEWISGAAVVNAFYSSGRNQIVFPAGILQPPMFSAQQSNSLNYGGIGMVIGHEITHGFDDNGRNFNKDGDLVDWWTQQSASNFKEQSQCMVYQYGNFSWDLAGGQHLNGINTLGENIADNGGLGQAYRAYQNYIKKNGEEKLLPGLDLNHKQLFFLNFAQVWCGTYRPEYAVNSIKTDVHSPGNFRIIGTLQNSAEFSEAFHCRKNSYMNPEKKCRVW
B2: NEP^F563I: neprilysin active site mutant, Phe563 to isoleucine (protein, UniProt P08473 2-750, looked up, variant F563I)
Neprilysin: B1 Neprilysin with M563I

Key:
Format in all cases: biochemical
[1] = Hydrolysis of synthetic substrate Glut-Ala-Ala-Phe-MNA by NEP and mutants (fluorogenic); conditions: 37°C, 20 mM MES buffer, pH 6.5; for Specific Activity (Glut-Ala-Ala-Phe-MNA cleavage): 100 µM Glut-Ala-Ala-Phe-MNA, fluorescence ex 340 nm, em 425 nm; for Km: Glut-Ala-Ala-Phe-MNA 20 to 500 µM, Michaelis-Menten fit
Description: Reactions of 400 µl contained 100 µM Glut-Ala-Ala-Phe-MNA, 1 µg of aminopeptidase and 15 to 100 ng of NEP or mutant NEP depending on their activity in 20 mM MES buffer, pH 6.5. Activity was monitored with a Spectra Max Gemini XS plate reader using an excitation wavelength of 340 nm and an emission wavelength of 425 nm.
(§1) Kinetic constants for NEP and its mutants were obtained using the assay conditions noted above, but with Glut-Ala-Ala-Phe-MNA varied from 20 to 500 µM. Typically 12 data points were obtained. The data were fit to the Michaelis-Menten equation using Prism4 software. The Ki for insulin B chain was obtained by measuring the rate of Glut-Ala-Ala-Phe-MNA hydrolysis in the presence of varying concentrations of insulin B chain from 1 to 40 µM. Data were fit to a Dixon plot (1/rate versus [insulin B chain]) using Prism4 software and the ID50 obtained as the –x intercept, where ID50 corresponds to the concentration of insulin producing 50% inhibition. The actual Ki was obtained from the equation: ID50 = Ki (1+ [Glut-Ala-Ala-Phe-MNA]/KmGlut-Ala-Ala-Phe-MNA), [33].

insulin B chain [2] = experiment: Insulin B chain as alternate substrate (competitive) inhibitor of Glut-Ala-Ala-Phe-MNA hydrolysis (Dixon plot); conditions: insulin B chain 1 to 40 µM as competitive inhibitor of Glut-Ala-Ala-Phe-MNA hydrolysis by the enzyme form, 37°C, 20 mM MES, pH 6.5, ID50 converted to Ki
Description: as §1

leu-ENK [3] = experiment: Rate of leu-ENK hydrolysis (HPLC); conditions: 64 µM leu-ENK, 37°C, 20 mM MES buffer, pH 6.5; disappearance of substrate by HPLC; at least triplicate
Description: (§2) Cleavage of physiological peptides was measured via reverse phase high performance liquid chromatography (HPLC) following incubation of the purified NEP or its mutants with 15 µM insulin B chain (Sigma Aldrich), 24 µM Aß1–40 (Anaspec), or 64 µM leu-ENK (Sigma) in 100 µL of 20 mM MES, pH 6.5, at 37°C. Reactions were run in triplicate. HPLC was carried out in a Vydac C4 column using a linear gradient from 0.1% trifluoroacetic acid (TFA) in 95% water, 5% acetonitrile to 0.1% TFA in 50% acetonitrile/water at a flow rate of 1 mL/min. Peptides and hydrolysis products were detected at 214 nm and quantified by measuring peak areas. Peptides obtained from HPLC were analyzed on an Applied Biosystems 4800 MALDI TOF/TOF Proteomics Analyzer at the University of Kentucky Proteomics core. This facility is supported in part by grant P20RR020171 from the NIH/NCRR.
(§3) Statistical analysis comparing wild-type NEP and its mutants was performed with Prism 4 software using a two-tailed paired t-test with a 95% confidence interval.

insulin B chain [4] = experiment: Rate of insulin B chain hydrolysis (HPLC); conditions: 15 µM insulin B chain, 37°C, 20 mM MES buffer, pH 6.5; disappearance of substrate by HPLC; at least triplicate
Description: as §2, §3

Aß1–40 = experiment: Rate of Aß1–40 hydrolysis (HPLC); conditions: 24 µM Aß1–40, 37°C, 20 mM MES buffer, pH 6.5; disappearance of substrate by HPLC; at least triplicate
Description: as §2, §3

leu-ENK [5] = experiment: Dual substrate assay: leu-ENK hydrolysis in presence of insulin B chain; conditions: 15 µM insulin B chain and 64 µM leu-ENK together, 37°C, 20 mM MES buffer, pH 6.5; for leu-ENK hydrolysis, activity relative to the uninhibited value: numbers in parenthesis
Description: (§4) The rate of cleavage of a substrate mixture is determined by both the kcat for that substrate as well by the affinity for the substrate. […] This is expected, given that each peptide acts as a competitive inhibitor of the other. […] That is the ratio for leu-ENK/insulin B chain cleavage is 3 for NEP^S546E compared to 6 for wild-type NEP.
as §2

insulin B chain [6] = experiment: Dual substrate assay: insulin B chain hydrolysis in presence of leu-ENK; conditions: 15 µM insulin B chain and 64 µM leu-ENK together, 37°C, 20 mM MES buffer, pH 6.5; for Insulin B Chain hydrolysis, activity relative to the uninhibited value: numbers in parenthesis
Description: as §4, §2

[7] = system: leu-ENK and insulin B chain; experiment: Dual substrate assay: substrate preference leu-ENK versus insulin B chain; conditions: for Substrate preference leu-ENK/insulin B chain (in words): dual substrate assay, versus wild-type; for Ratio leu-ENK insulin B chain: ratio of rates, 15 µM insulin B chain and 64 µM leu-ENK together
Description: as §4, §2

| Molecule | Specific Activity (Glut-Ala-Ala-Phe-MNA cleavage) [1] [pmol/min/ng] | Km [1] [µM] | Ki (insulin B chain [2]) [nM] | Rate of hydrolysis of leu-ENK (leu-ENK [3]) [pmol/min/ng] | Rate of hydrolysis of Insulin B Chain (insulin B chain [4]) [pmol/min/ng] | Rate of hydrolysis of Aß1–40 (Aß1–40) [fmol/min/ng] | leu-ENK hydrolysis rate, dual substrate assay (leu-ENK [5]) [pmol/min/ng] | leu-ENK hydrolysis, activity relative to the uninhibited value (leu-ENK [5]) | Insulin B Chain hydrolysis rate, dual substrate assay (insulin B chain [6]) [pmol/min/ng] | Insulin B Chain hydrolysis, activity relative to the uninhibited value (insulin B chain [6]) | Substrate preference leu-ENK/insulin B chain (in words) [7] | Ratio leu-ENK insulin B chain [7] |
| --- | --- | --- | --- | --- | --- | --- | --- | --- | --- | --- | --- | --- |
| B1 | 19.2 ± 0.4 | 87 ± 8 | 1200 ± 100 | 1.21 ± 0.22 | 0.21 ± 0.01 | 85 ± 3 | 0.69 ± 0.11 | 0.57 | 0.11 ± 0.02 | 0.52 | no change in overall substrate preference | 6.3 |
| B2 | 17.7 ± 0.6 | 83 ± 4 | 2500 ± 900 | 1.06 ± 0.17 | 0.13 ± 0.02 | 43 ± 1 | 0.62 ± 0.03 | 0.58 | 0.02 ± 0.01 | 0.15 | shift in substrate preference toward leu-ENK | 31.0 |
